# Where “and” joins values, the source holds several entries; their conditions need not be identical. Equal values may be shown once.
# B1: PM-477: genetically engineered recombinant Gardnerella-specific endolysin, amino acid sequence SEQ ID NO: 1, His-tag cleaved off (protein)
# chain: SKRGIDVSEWQGDIDFNAVKASGVEFVIIRAGYGIGCKDKWFEQNYRKAKTCGLDVGAYWYSYANSGFEAAEEAQSCVNMLSGKSFEYPVYFDLEEKSQLNRGRAFCDSLITGFCNKLESCGYYAGFYTSLSTANNLVSAHVRNRYALWIAQWNTHCSYQGSYGLWQYSSSGSVPGVAGRVDMDYAYVDYPSIIKNVGLNGYKNGGSYTAPQISSIDEVAREVINGDWGNGNERKQRLTSAGYDYASVQNKVNELLGVKAYRKSVDELAREVIRGTWGNGSTRKQRLTQAGYDYNAVQKRVNELL
# modifications: His-tag cleaved off; H2B10
# Key:
# [1] = tested on: passaged G. vaginalis; assay: MIC on strains passaged with MDZ or MDZ-OH; format: cell-based, Gardnerella vaginalis; settings: 48 h incubation
# Method: (§1) The minimum inhibitory concentration (MIC), which is a standard measure of the activity of antimicrobials, was determined according to the Clinical and Laboratory Standards Institute protocol (2018) Methods for Antimicrobial Susceptibility Testing of Anaerobic Bacteria (Carpenter et al., 2018). […] Controls for growth in the absence of antimicrobials were also included. OD600 was recorded by a microplate reader (Tecan, Grodig, Austria) after incubation at 37° C. for 48 h or, for some fast-growing strains, after incubation for 24 h. Absence of growth was defined as OD600≤0.14. […] MIC readout and MBC99.5 spotting were performed after 72 h incubation for H2B10B11. MBC99.5 is the minimum concentration of an antibacterial agent that results in bacterial death of all cells in suspension up to a defined limit of detection, resulting in killing of at least 99.5% of bacteria.
# (§2) The final volume of the reaction was 100 µL and the reactions were performed in triplicate in 384-well plates. The OD600 was measured using a microplate reader (Tecan, Grodig, Austria) to generate timepoint 0 h baseline values. The reactions were incubated anaerobically for 24 h, then the OD600 was measured again, and the MIC was measured as the lowest concentration with OD600<0.14. […] This process was repeated for a maximum of 25 rounds. In each round, the input CFU/mL was determined by quantitative plating.
# (§3) The susceptibility of Gardnerella strains before and after 8 to 9-times passaging with sub-MIC concentrations of MZD or MDZ-OH is shown in Table 4 below. All MICs determined after 48 h of incubation.
# [2] = tested on: Gardnerella vaginalis; assay: microbe, parasite or virus in culture; format: cell-based; settings: for MIC before passaging: 48 h incubation
# Method: as §1, with “H2B10B11.” for “H2B10B11. MBC99.5 is the minimum concentration of an antibacterial agent that results in bacterial death of all cells in suspension up to a defined limit of detection, resulting in killing of at least 99.5% of bacteria.”
# (§4) However, topical intravaginal antibiotic administration is recommended for BV therapy, which allows to reach concentrations of active ingredients in the mg/mL range. […] Abbreviations: n.d., not determined; SJHB, St. Jan Hospital Bruges.
# (§5) MIC90 is defined as the MIC value for 90% of the tested strains. For PM-477 (H2B10), the resistance breakpoint is not defined, therefore a “% resistant” is not defined (n.d.).
# [3] = tested on: Gardnerella swidsinskii; assay: microbe, parasite or virus in culture; format: cell-based; settings: for MIC before passaging: 48 h incubation
# Method: as §1, with “H2B10B11.” for “H2B10B11. MBC99.5 is the minimum concentration of an antibacterial agent that results in bacterial death of all cells in suspension up to a defined limit of detection, resulting in killing of at least 99.5% of bacteria.”
# as §4, §5
# [4] = tested on: passaged G. swidsinskii; assay: MIC on strains passaged with MDZ-OH; format: cell-based, Gardnerella swidsinskii; settings: 48 h incubation
# Method: as §1, §2, §3
# [5] = tested on: passaged G. piotii; assay: MIC on strains passaged with MDZ-OH; format: cell-based, Gardnerella piotii; settings: G. piotii (UGent 18.01T) passaged with MDZ-OH, 48 h incubation
# Method: as §1
# The final volume of the reaction was 100 µL and the reactions were performed in triplicate in 384-well plates. The OD600 was measured using a microplate reader (Tecan, Grodig, Austria) to generate timepoint 0 h baseline values. […] In each round, the input CFU/mL was determined by quantitative plating.
# as §3
# [6] = tested on: All Gardnerella; assay: MIC assessment in suspension, panel of 22 strains; format: cell-based, Gardnerella spp.; settings: N=22 strains
# Method: as §1, with “H2B10B11.” for “H2B10B11. MBC99.5 is the minimum concentration of an antibacterial agent that results in bacterial death of all cells in suspension up to a defined limit of detection, resulting in killing of at least 99.5% of bacteria.”
# as §4, §5
# [7] = tested on: MDZ or MDZ-OH passaged Gardnerella strains grown as biofilm; assay: MBEC on biofilms of the six passaged strains, summary; format: cell-based, Gardnerella spp.
# Method: (§6) Gardnerella spp. (see figures for strain specification) was resuspended in brain heart infusion broth supplemented with 2% (w/v) gelatin, 0.5% yeast extract (w/v), 0.1% starch (w/v) and 0.25% glucose (w/v) (sBHIG). Passaged strains were resuspended in unbuffered NYCB supplemented with 1% glucose (w/v) (sNYCB). The OD600 was set to 0.1 (approx. 10^7-10^8 CFU/mL) and the cell suspension was diluted 1:10 in growth medium as input for biofilm formation. A total of 200 μL of the respective bacterial suspensions was added to 96-well flat bottom plates (tissue-culture treated, Sigma-Aldrich). The biofilms were grown under anaerobic conditions at 37° C. for 40 to 72 hours, depending on the isolate. Subsequently, the supernatant was removed, and the biofilm was treated with antimicrobials dissolved in sBHIG (at pH 5 for treatment with PM-477 (H2B10), and unbuffered for treatment with antibiotics) in 100 μL and incubated anaerobically at 37° C. for another 24 hours. After the treatment, the biofilms were washed twice with 200 μL 1x PBS and dissolved by vigorous pipetting (40x up and down). Serial dilutions of the dissolved cells were spotted on chocolate agar plates. The plates were incubated anaerobically for two to three days and the minimum biofilm eradication concentration (MBEC) of the endolysin or the antibiotics in use were calculated.
# [8] = tested on: G. vaginalis biofilm; assay: MBEC on pre-formed biofilms of ancestor isolates; format: cell-based, Gardnerella vaginalis
# Method: as §6
# Gardnerella dominated biofilms covering the human vaginal epithelial cells are now generally considered as a hallmark of BV. Thus, it was tested how effective antibiotics and PM-477 (H2B10) are in penetrating and killing in vitro pre-formed, 40-72 h old biofilms of various Gardnerella strains.
# [9] = Gardnerella swidsinskii, N=4 strains
molecule,measurement,setting,value
B1,MIC passaged,[1]; G. vaginalis (ATCC 14018T) passaged with sub-MIC MDZ,0.13 µg/mL
same,MIC passaged,[1]; G. vaginalis (UGent 09.07) passaged 8 times with MDZ-OH,0.25 µg/mL
same,MIC passaged,[1]; G. vaginalis (UGent BV50) passaged with MDZ-OH,0.25 µg/mL
same,MIC before passaging,[2]; G. vaginalis (ATCC 14018T),0.06 µg/mL
same,MBC99.5,[2]; G. vaginalis (BV50) UGent BV50.1,1 µg/mL
same,MIC,"[2]; G. vaginalis (BV50) UGent BV50.1, suspension",0.5 µg/mL
same,MBC99.5,[2]; G. vaginalis (BV111) UGent BV111.5,0.5 µg/mL
same,MIC,"[2]; G. vaginalis (BV111) UGent BV111.5, suspension",0.25 µg/mL
same,MBC99.5,[2]; G. vaginalis (FB049) UGent FB049-01,0.25 µg/mL
same,MIC,"[2]; G. vaginalis (FB049) UGent FB049-01, suspension",0.25 µg/mL
same,MBC99.5,[2]; G. vaginalis (FB061) UGent FB061-03,2 µg/mL
same,MIC,"[2]; G. vaginalis (FB061) UGent FB061-03, suspension",0.5 µg/mL
same,MBC99.5,[2]; G. vaginalis (Gv1) UGent 09.07,1 µg/mL
same,MIC,"[2]; G. vaginalis (Gv1) UGent 09.07, suspension",0.25 µg/mL
same,MBC99.5,[2]; G. vaginalis (Gv5) UGent 09.01,0.125 µg/mL
same,MIC,"[2]; G. vaginalis (Gv5) UGent 09.01, suspension",<0.03 µg/mL
same,MBC99.5,[2]; G. vaginalis (Gv8) UGent 25.49,0.125 µg/mL
same,MIC,"[2]; G. vaginalis (Gv8) UGent 25.49, suspension",0.03 µg/mL
same,MIC,"[2]; G. vaginalis (Gv9) ATCC 14018(T), suspension",0.06 µg/mL
same,MBC99.5,"[2]; G. vaginalis (Gv9) ATCC 14018(T), reduces CFU by 99.5% within 24 h",0.25 µg/mL
same,MIC before passaging,[2]; G. vaginalis (UGent 09.07),0.25 µg/mL
same,MIC before passaging,[2]; G. vaginalis (UGent BV50),0.5 µg/mL
same,MIC Range,"[2]; Gardnerella vaginalis, N=8 strains",<0.03 to 0.5 µg/mL
same,MIC90,"[2]; Gardnerella vaginalis, N=8 strains, MIC value for 90% of the tested strains",0.5 µg/mL
same,MBC99.5,[3]; G. swidsinskii (BV7) UGent BV7.1,0.25 µg/mL
same,MIC,"[3]; G. swidsinskii (BV7) UGent BV7.1, suspension",0.25 µg/mL
same,MBC99.5,[3]; G. swidsinskii (BV139) UGent BV139.3,0.125 µg/mL
same,MIC before passaging,[3]; G. swidsinskii (GS 9838-1T),0.03 µg/mL
same,MBC99.5,[3]; G. swidsinskii (Gs23) GS 10234,0.125 µg/mL
same,MIC,"[3]; G. swidsinskii (Gs23) GS 10234, suspension",0.063 µg/mL
same,MBC99.5,[3]; G. swidsinskii (Gs24) GS 9838-1(T),0.06 µg/mL
same,MIC,"[3]; G. swidsinskii (Gs24) GS 9838-1(T), suspension",0.03 µg/mL
same,MIC before passaging,[3]; G. swidsinskii (UGent BV 7.1),0.25 µg/mL
same,MIC90,[3]; [9],0.25 µg/mL
same,MIC Range,[3]; [9],0.03 to 0.25 µg/mL
same,MIC passaged,[4]; G. swidsinskii (GS 9838-1T) passaged with MDZ-OH,0.06 µg/mL
same,MIC passaged,[4]; G. swidsinskii (UGent BV 7.1) passaged with MDZ-OH,0.06 µg/mL
same,MIC passaged,[5],2 µg/mL
same,MIC90,[6],1 µg/mL
same,MIC Range,[6]; listed as PM-477 (H2B10),<0.03-1^ μg/mL
same,Susceptibility of MDZ-passaged strains grown as biofilm (FIG. 4),[7]; 72 h pre-formed biofilms treated for 24 h,susceptible
same,"MBEC, range over passaged strains","[7]; six strains passaged on MDZ or MDZ-OH, pre-formed biofilms, 24 h treatment, listed as PM-477 (H2B10)",1 to 8 µg/mL and 1 to 4 µg/mL
same,Eradication of biofilm-grown cells (FIG. 1),"[8]; G. vaginalis (ATCC14018), biofilm grown 40 h, treated 24 h",can be eradicated
same,MBEC,"[8]; ancestor G. vaginalis ATCC14018, pre-formed biofilm, 24 h treatment",32 µg/mL
same,MBEC,"[8]; ancestor G. vaginalis UGent 09.07, pre-formed biofilm",16 µg/mL
same,MBEC,"[8]; ancestor G. vaginalis UGent BV50, pre-formed biofilm",2 µg/mL
same,MBEC,"[8]; ancestor G. vaginalis UGent BV111.5, pre-formed biofilm",8 to 32 µg/mL
same,MBEC,"[8]; ancestor G. vaginalis UGent FB049, pre-formed biofilm",0.5 to 2 µg/mL

# From patent US20250144186A1, “NOVEL THERAPEUTIC USES OF GARDNERELLA ENDOLYSINS” (priority 2022, published 2025)
